In US5821118 one finds IC50 value (nM), inhibition of farnesylation of Ras protein data, which are given here for 3 substances.

For test [1], the target named is bovine brain farnesyl-protein transferase (bovine) (UniProt P29702).
In test [2] the target is human farnesyl-protein transferase, recombinant, expressed in E. coli from pRD516 with a C-terminal Glu-Glu-Phe epitope tag on the β subunit (human).

On to “tetrapeptide CVIL (cysteinylvalinyl-isolleucinyl-leucine)”, for which the figures for the IC50 value (nM), inhibition of farnesylation of Ras protein in test [1] and in test [2] were 20000 nM and 6200 nM, respectively.
The like results for “tetrapeptide CIFM (cysteinylisolleucinyl-phenylalaninyl-methionine)” were, in that order, 10 nM and 17 nM.
The like results for “tetrapeptide CVIM (cysteinylvalinyl-isolleucinyl-methionine)” were, in that order, 100 nM and 100 nM.
